Data as given in the RNAGym collection of RNA variant scans (doi:10.1073/pnas.2313332121).

B1: TPR t1 (parent)
chain: GACCAAUCUGCCCUCAGAGCUCGAGAACAUCUUCGGAUGCAGAGGAGGCAGGCUUCGGUGGCGCGAUAGCGCCAACGUCCUCAACCUCCAAUGCAUCCCACCACAUGAUGAUGCCUGAAGAGCCUUGGUUUUUUG

Variants of: B1
Assay: polymerase ribozyme fitness, log enrichment relative to wild type (log ratio); higher = more active; in vitro selection for triplet polymerase activity
How it was run: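 A heterodimeric triplet polymerase ribozyme had each of its subunits mutagenized by PCR into a library, which was transcribed. One round of in vitro selection, done in triplicate, annealed each library with a biotinylated primer, its partner subunit and triplets, then incubated it frozen at −7 °C before gel excision of extended constructs, streptavidin-bead capture and RT-PCR. Fitness is the logarithm of genotype enrichment relative to wild-type enrichment, based on Illumina sequencing of inputs and outputs and inverse-variance-weighted replicate averages. A base-2 logarithm is used, and genotypes were kept only with ≥10 input reads and ≥1 read per output.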

Variant | polymerase ribozyme fitness (log ratio)
GACCAAUCUGCCCUCAGAGCUCGAGAACAUCUUCGGAUGCAGGGGAGGCAGGCUUCGGUGGCGCGAUAGCGCCAACGUCCUCAACCUCCAAUGCAUCCCACCACAUGGUGAUGCCUGAAGAGCCUUGGUUUUUUG | -4.26
GACCAAUCUGCCCUCAGAGCUCGAGAACAUCUUCGGAUGCAGGGGAGGGAGGCUUCGGUGGCGCGAUAGCGCCAACGUCCUCAACCUCCAAUGCAUCUCACCACAUGAUGAUGCCUGAACAGCCUUGGUUUUUUG | -3.88
GACCAAUCUGCCCUCAGAGCUCGAGAACAUCUUCGGAUGCAGCGGAGGCAGGCUUCGGUGGCGCGAUAGCGCCAACGUCCUCAACCUCCAAGGCAUCCCAACACAUGAUGAUGCCUGAAGAGCCUUGGUUUAUUG | -4.9
GACCAAUCUGCCCUCAGAGCUCGAGAACAUCUUCGGAUGCAGGGGAGGCAGGGUUCGGUGGCGCGAUACCGCCAACGUCCUCAACCUCCAAUGCAUCCCACCACAUGAUGAUGCCUGAAGAGCCUUGGUUUUUUG | -2.9
GACCAAUCUGCCCUCAGAGCUCGAGAACAUCUUCGGAUGCAGGGGAGGCAGGCUUGGGUGGCGCGAUAUCGCCAACGUCCUCAACCUCCAAUGCAUCCCACCACAUGGUGAUGCCUGAAGAGCAUUGGUUUUUUG | -2.3
GACCAAUCUGCCCUCAGAGCUCGAGAACAUCUUCGGAUGCAGGGGAGGCAGGCUUCGGUGGCGCGAUAGCGGCAACGUCCUCAACCUCCAAUGCAUCCCACCACAUGAUGAUGCCUGAAGAGCCUUGGUUUUUUG | -1.52
GACCAAUCUGCCCUCAGAGCUCGAGAACAUCUUCGGAUGCAGGGGAGGCAGGCUUCGGUGGCGCGAUAGCGUCAACGUCCUCAACCUCCAAUGCAUCCCACCACAUGAUGAUGCCUGAAGAGCCUUGGUUUUUUG | -0.99
GACCAAUCUGCCCUCAGAGCUCGAGAACAUCUUCGGAUGCAGGGGAGGCGGGCUUCGGUGGCGCGAUAGAGCCAACGUCCUCAACCUCCAAUGCAUCCCAUCACAUGAUGAUGCCUGAAGAGCCUUGGUUUUUUG | -5.22
GACCAAUCUGCCCUCAGAGCUCGAGAACAUCUUCGGAUGCAGGGGAGGCAGGAUUCGGUGGCGCGAUAGCGCCAACGUCCUCAACCUCCAAUGCAUCCCACCACAUGAAGAUGCCUGAGGAGCCUUGGUUUUUUG | -5.89
GACCAAUCUGCCCUCAGAGCUCGAGAACAUCUUCGGAUGCAGCGGAGGCAGGCUUCGGUGGCGCGAUAGCGCCAACGUCCUCAACCUCCAAUGCAUCCCACCACAUGAUGAUGCCUGAAGAGCCUUGGAUUUUUG | -3.98
GACCAAUCUGCCCUCAGAGCUCGAGAACAUCUUCGGAUGCAGCGGAGGCAGGCCUCGAUGGCGCGAUAGCGCCAACGUCCUCAACAUCCAAUGCAUCCCACCACAUGAUGAUGCCUGAAGAGCCUUGGUUUUUUG | -3.78
GACCAAUCUGCCCUCAGAGCUCGAGAACAUCUUCGGAUGCAGGGUAGGCAGGCUUCGGAGGCGCGUUAGCGCCAACGUCCUCAACCUCCAAUGCAUCCCACCACAUGAUGAUGCCUGAAGAGCCUUGGUUUUUUG | -5.27
GACCAAUCUGCCCUCAGAGCUCGAGAACAUCUUCGGAUGCAGGGGAGGCGGGCUUCGGUGGCCCGAUAGCGCCAACGUCCUCAACCUCCAAUGCAUCCCACCACAUGAUGAUGCCUGAAGAGCCUUGGUUUUUUG | -3.02
GACCAAUCUGCCCUCAGAGCUCGAGAACAUCUUCGGAUGCAGGGGAGGCAGGCUUCGGUGGCGCGAUAGCGCCGACGUCCUCAACCUCUAAUGCAUCCCACCACAUGAGGAUGCCUGAAGAGCCUUGGUUUUUUG | -7.22
GACCAAUCUGCCCUCAGAGCUCGAGAACAUCUUCGGAUGCAGGGGUGGCAGGCUGCGGUGGCGCGAUAGCGCCAACGUCCUCAACCUCCAAUGCAUCCCACCACAUGAUGAUGCCUGAAGAGCCUUGGUUUUUUG | -2.46
GACCAAUCUGCCCUCAGAGCUCGAGAACAUCUUCGGAUGCAGGGGAGGCAGGAUUCGGUGGCGCGAUAGCGCCAACGCCCUCAACCUUCAAUGCAUCCCACCACAUGAUGAUGCCUGAAGAGCCUUGGUUUUUUG | -1.22
GACCAAUCUGCCCUCAGAGCUCGAGAACAUCUUCGGAUGCAGGGGAGGCAGGCUUAUGCGGCGCGAUAGCGCCAACGUCCUCACCUUCCAAUGCAUCCCACCACAUGAUGAUGCCUGAAGAGCCUUGGUUUUUUG | -3.81
GACCAAUCUGCCCUCAGAGCUCGAGAACAUCUUCGGAUGCAGGGGAGGCAGGCUUCGGUGGCGCGAUAGCGCCAACGUCCUCAACCUCCAAUGCAUCCCACCACAUGAUGAUGCCUGAAGAGCCUUGGUUUUUUG | -1.32
GACCAAUCUGCCCUCAGAGCUCGAGAACAUCUUCGGAUGCAGGGGAGGCAGGCUUCGGUGGCGCGAUAGCGCCUACGUCCUCAACCUCCAAUGCAUCCCACCACAUGAUGAUGCCUGAAGAGCCUUGGUUUUUUG | -2.25
GACCAAUCUGCCCUCAGAGCUCGAGAACAUCUUCGGAUGCAGGGGAGGCAGGCUUCGGUGGCGCGAUAGCGCCCACGUCCUCAACCUCCAAUGCAUCCCACCACAUGAUGAUGCCUGAAGAGCCUUGGUUUUUUG | -2.19
GACCAAUCUGCCCUCAGAGCUCGAGAACAUCUUCGGAUGCAGGGGAGGCAGUCUUCGGUGGCGCGAUAGCGCCAACGUCCUCAACCUCCAAUGCAUCCCACCACAUGAUGAUGCCUGAAGAGCCUUGGUUUUUUG | -2.44
